Laboratory results from PMC4447340.

Target: Cyclophilin J (human) (UniProt Q9H2H8)
Chain of UniProt Q9H2H8 (Q9H2H8 whole entry): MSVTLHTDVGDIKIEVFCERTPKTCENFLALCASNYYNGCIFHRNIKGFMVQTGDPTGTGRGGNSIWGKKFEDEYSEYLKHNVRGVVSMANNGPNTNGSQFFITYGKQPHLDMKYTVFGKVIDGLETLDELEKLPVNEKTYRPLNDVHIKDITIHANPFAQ

inhibition of the PPIase activity of CYPJ (chymotrypsin-coupled assay, 13.1 μM CYPJ, 1-16 μM CsA): 12 µM
Substance: Cyclosporin A (peptide)
